Where two headings read alike, the source gives them in different places.
How the values were obtained:
[1] = Ex vivo biodistribution after SPECT/CT scanning; assay type: in vivo, mouse; details: mouse, iv, ~3 h p.i.; for tissue to tissue ratio: male, Balb/c nu/nu, total radioactivity, radioactivity; for tissue uptake at 3 h: PC-3 xenograft mice, i.v.
Procedure: (§1) Seven-week-old male Balb/c nu/nu-specific and opportunistic pathogen-free (SOPF) mice (Janvier Labs, Le Genest-Saint-Isle, France) were housed in individually ventilated cages, with 4 mice per cage. Upon arrival, mice were acclimated for 1 week, with access to food and water ad libitum. Mice were subcutaneously inoculated on the right shoulder with PC-3 cells (5 × 10^6 cells suspended in 100 µL of 1/3 Matrigel (Corning Inc., Corning, NY, USA) and 2/3 Hank’s balanced salt solution (Gibco). PC-3 xenografts were allowed to grow for 3 weeks. Tumor sizes were 391 ± 173 mm^3 at the start of the studies. All animal experiments were approved by the Animal Welfare Committee of the Erasmus MC and were conducted in agreement with institutional guidelines (license number: AVD101002017867, 28 September 2017).
(§2) To determine the biodistribution of the compounds after imaging (~3 h p.i.), blood was collected via cardiac puncture under isoflurane/O2 anesthesia, after which the mice were sacrificed. The tumor and organs of interest (prostate, pancreas, spleen, liver, GI tract (stomach, small intestine, cecum, large intestine), kidneys, lungs, heart, muscle, bone, and brain) were excised, washed in PBS and blotted dry. The stomach, intestines and cecum were emptied of their contents. The tumor was cut in half; one half was fresh-frozen for further analysis and the other half was collected for ex vivo optical imaging and radioactivity measurements. After imaging, the blood, tumor, and relevant organs were weighed and measured in a γ-counter. To determine the total injected radioactivity per animal, samples of the injected solutions were measured as well. The percentage of injected dose per gram (%ID/g) was determined for each tissue sample and corrected for both the injected volume and %ID present at the injection site (the tail). Because the low weight of the prostate limited accurate organ weight measurements, the average prostate weight of all animals was used.

[2] = tested on: PC-3-xenograft Balb/c nu/nu mice; assay: Ex vivo biodistribution after SPECT/CT scanning; assay type: in vivo, mouse; details: radioactivity, ~3 h p.i.
Procedure: as §1, §2

[3] = Stability in mouse serum at 37 °C (iTLC); assay type: in vitro ADME
Procedure: Stability in PBS was determined by incubating 20 µL of the labeled compounds (∼11 MBq) in PBS (80 µL) at 37 °C. Radiochemical purity was determined by iTLC at 30 min, 1 h, 2 h and 4 h. Stability in the serum was carried out by adding 70 µL of the labeled compound (∼35 MBq) to 330 µL of mouse serum (Merck, Haarlerbergweg, The Netherlands). The mixture was incubated at 37 °C. At different time points (30 min, 1 h, 2 h and 4 h), an aliquot of the mixture (50 µL) was added to 50 µL ACN. The vial was vortexed and centrifuged at 10,000 rpm for 20 min and the supernatant was analyzed by iTLC.

[4] = blocked with 150 nmol unlabeled NeoB, n = 1

Structure (SMILES): CC(C)CC(CC(C)C)NC(=O)[C@H](Cc1c[nH]cn1)NC(=O)CNC(=O)[C@@H](NC(=O)[C@H](C)NC(=O)[C@H](Cc1c[nH]c2ccccc12)NC(=O)[C@H](CCC(N)=O)NC(=O)[C@@H](Cc1ccccc1)NC(=O)COCC(=O)Nc1ccc(CNC(=O)[C@H](CCCCNC(=O)CCOCCOCCOCCOCCNC(=O)OC2CCCC3C=NN=C(c4ccc(CNC(=O)CCCCC[N+]5=C(/C=C/C=C/C=C6N(C)c7ccc(S(=O)(=O)O)cc7C6(C)C)C(C)(C)c6cc(S(=O)(=O)[O-])ccc65)cc4)C3CC2)NC(=O)CN2CCN(CC(=O)O)CCN(CC(=O)O)CCN(CC(=O)O)CC2)cc1)C(C)C (stereo partly shown) [[^111In]In-12, metal not drawn]
- tissue to tissue ratio ([1]; tumor and blood, non-blocked, n = 3, read-out: Tumor-to-blood ratio): 1.09 ± 0.15
- tissue to tissue ratio ([1]; tumor and kidney, blocked with 150 nmol unlabeled NeoB, n = 1, read-out: Tumor-to-kidney ratio): 0.16
- tissue to tissue ratio ([1]; tumor and kidney, non-blocked, n = 3, read-out: Tumor-to-kidney ratio): 0.34 ± 0.05
- tissue to tissue ratio ([1]; tumor and liver, blocked with 150 nmol unlabeled NeoB, n = 1, read-out: Tumor-to-liver ratio): 0.14
- tissue to tissue ratio ([1]; tumor and liver, non-blocked, n = 3, read-out: Tumor-to-liver ratio): 0.55 ± 0.04
- tissue to tissue ratio ([1]; tumor and muscle, blocked with 150 nmol unlabeled NeoB, n = 1, read-out: Tumor-to-muscle ratio): 2.62
- tissue to tissue ratio ([1]; tumor and muscle, non-blocked, n = 3, read-out: Tumor-to-muscle ratio): 9.04 ± 1.74
- tissue to tissue ratio ([1]; tumor and pancreas, blocked with 150 nmol unlabeled NeoB, n = 1, read-out: Tumor-to-pancreas ratio): 2.16
- tissue to tissue ratio ([1]; tumor and pancreas, non-blocked, n = 3, read-out: Tumor-to-pancreas ratio): 0.51 ± 0.03
- tissue uptake at 3 h ([1]; blood, blocked with 150 nmol unlabeled NeoB, n = 1, read-out: Blood uptake): 7.31 %ID/g
- tissue uptake at 3 h ([1]; blood, non-blocked, n = 3, read-out: Blood uptake): 7.83 ± 0.84 %ID/g
- tissue uptake at 3 h ([1]; bone, blocked with 150 nmol unlabeled NeoB, n = 1, read-out: Bone uptake): 1.87 %ID/g
- tissue uptake at 3 h ([1]; bone, non-blocked, n = 3, read-out: Bone uptake): 2.03 ± 0.89 %ID/g
- tissue uptake at 3 h ([1]; brain, blocked with 150 nmol unlabeled NeoB, n = 1, read-out: Brain uptake): 0.2 %ID/g
- tissue uptake at 3 h ([1]; brain, non-blocked, n = 3, read-out: Brain uptake): 0.2 ± 0.03 %ID/g
- tissue uptake at 3 h ([1]; cecum, blocked with 150 nmol unlabeled NeoB, n = 1, read-out: Cecum uptake): 2.35 %ID/g
- tissue uptake at 3 h ([1]; cecum, non-blocked, n = 3, read-out: Cecum uptake): 3.73 ± 0.4 %ID/g
- tissue uptake at 3 h ([1]; heart, blocked with 150 nmol unlabeled NeoB, n = 1, read-out: Heart uptake): 2.24 %ID/g
- tissue uptake at 3 h ([1]; heart, non-blocked, n = 3, read-out: Heart uptake): 2.39 ± 0.23 %ID/g
- tissue uptake at 3 h ([1]; kidneys, blocked with 150 nmol unlabeled NeoB, n = 1, read-out: Kidneys uptake): 17.1 %ID/g
- tissue uptake at 3 h ([1]; kidneys, non-blocked, n = 3, read-out: Kidneys uptake): 24.9 ± 2.78 %ID/g
- tissue uptake at 3 h ([1]; large intestine, blocked with 150 nmol unlabeled NeoB, n = 1, read-out: Large intestine uptake): 2.06 %ID/g
- tissue uptake at 3 h ([1]; large intestine, non-blocked, n = 3, read-out: Large intestine uptake): 3.88 ± 0.4 %ID/g
- tissue uptake at 3 h ([1]; liver, blocked with 150 nmol unlabeled NeoB, n = 1, read-out: Liver uptake): 20 %ID/g
- tissue uptake at 3 h ([1]; liver, non-blocked, n = 3, read-out: Liver uptake): 15.3 ± 0.43 %ID/g
- tissue uptake at 3 h ([1]; lungs, blocked with 150 nmol unlabeled NeoB, n = 1, read-out: Lungs uptake): 16.1 %ID/g
- tissue uptake at 3 h ([1]; lungs, non-blocked, n = 3, read-out: Lungs uptake): 6.51 ± 1.15 %ID/g
- tissue uptake at 3 h ([1]; muscle, blocked with 150 nmol unlabeled NeoB, n = 1, read-out: Muscle uptake): 1.04 %ID/g
- tissue uptake at 3 h ([1]; muscle, non-blocked, n = 3, read-out: Muscle uptake): 0.96 ± 0.16 %ID/g
- tissue uptake at 3 h ([1]; pancreas, blocked with 150 nmol unlabeled NeoB, n = 1, read-out: Pancreas uptake): 1.26 %ID/g
- tissue uptake at 3 h ([1]; pancreas, non-blocked, n = 3, read-out: Pancreas uptake): 16.6 ± 1.41 %ID/g
- tissue uptake at 3 h ([1]; prostate, blocked with 150 nmol unlabeled NeoB, n = 1, read-out: Prostate uptake): 4.36 %ID/g
- tissue uptake at 3 h ([1]; prostate, non-blocked, n = 3, read-out: Prostate uptake): 3.56 ± 1.62 %ID/g
- tissue uptake at 3 h ([1]; small intestine, blocked with 150 nmol unlabeled NeoB, n = 1, read-out: Small intestine uptake): 1.45 %ID/g
- tissue uptake at 3 h ([1]; small intestine, non-blocked, n = 3, read-out: Small intestine uptake): 4.4 ± 2.45 %ID/g
- tissue uptake at 3 h ([1]; spleen, blocked with 150 nmol unlabeled NeoB, n = 1, read-out: Spleen uptake): 3.32 %ID/g
- tissue uptake at 3 h ([1]; spleen, non-blocked, n = 3, read-out: Spleen uptake): 4.11 ± 0.94 %ID/g
- tissue uptake at 3 h ([1]; stomach, blocked with 150 nmol unlabeled NeoB, n = 1, read-out: Stomach uptake): 3.12 %ID/g
- tissue uptake at 3 h ([1]; stomach, non-blocked, n = 3, read-out: Stomach uptake): 3.22 ± 0.54 %ID/g
- tissue uptake at 3 h ([1]; tumor, blocked with 150 nmol unlabeled NeoB, n = 1, read-out: Tumor uptake): 2.72 %ID/g
- tissue uptake at 3 h ([1]; tumor, non-blocked, n = 3, read-out: Tumor uptake): 8.47 ± 0.46 %ID/g
- Tumor-to-blood ratio [2, 4]: 0.37
- Tumor-to-prostate ratio [2, 4]: 0.62
- Tumor-to-prostate ratio ([2]; non-blocked, n = 3): 2.86 ± 1.58
- Stability in Mouse Serum (%) 30 min ([3]; intact labeled ligand after incubation at 37 °C in mouse serum, 30 min, n = 1): 96.3%
- Stability in Mouse Serum (%) 1 h ([3]; intact labeled ligand after incubation at 37 °C in mouse serum, 1 h, n = 1): 96.4%
- Stability in Mouse Serum (%) 2 h ([3]; intact labeled ligand after incubation at 37 °C in mouse serum, 2 h, n = 1): 96.5%
- Stability in Mouse Serum (%) 4 h ([3]; intact labeled ligand after incubation at 37 °C in mouse serum, 4 h, n = 1): 96.5%
- Protein-Bound Fraction at 4 h (%) ([3]; mouse serum, 4 h): 7.0%
